In patent US20200101171A1:

Molecular target: IGF-1 receptor (UniProt P08069)
Experiment: SPA competition by the method of Experimental Example 1; text: relative to human native IGF-1; curve did not reach saturation at the highest concentration

Chain of native insulin-3.4K PEG-immunoglobulin Fc conjugate (chain): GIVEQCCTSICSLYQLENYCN
Chain of native insulin-3.4K PEG-immunoglobulin Fc conjugate (chain): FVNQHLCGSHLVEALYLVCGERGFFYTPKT
Chain of UniProt P08069 (P08069 31-1367 limits assumed): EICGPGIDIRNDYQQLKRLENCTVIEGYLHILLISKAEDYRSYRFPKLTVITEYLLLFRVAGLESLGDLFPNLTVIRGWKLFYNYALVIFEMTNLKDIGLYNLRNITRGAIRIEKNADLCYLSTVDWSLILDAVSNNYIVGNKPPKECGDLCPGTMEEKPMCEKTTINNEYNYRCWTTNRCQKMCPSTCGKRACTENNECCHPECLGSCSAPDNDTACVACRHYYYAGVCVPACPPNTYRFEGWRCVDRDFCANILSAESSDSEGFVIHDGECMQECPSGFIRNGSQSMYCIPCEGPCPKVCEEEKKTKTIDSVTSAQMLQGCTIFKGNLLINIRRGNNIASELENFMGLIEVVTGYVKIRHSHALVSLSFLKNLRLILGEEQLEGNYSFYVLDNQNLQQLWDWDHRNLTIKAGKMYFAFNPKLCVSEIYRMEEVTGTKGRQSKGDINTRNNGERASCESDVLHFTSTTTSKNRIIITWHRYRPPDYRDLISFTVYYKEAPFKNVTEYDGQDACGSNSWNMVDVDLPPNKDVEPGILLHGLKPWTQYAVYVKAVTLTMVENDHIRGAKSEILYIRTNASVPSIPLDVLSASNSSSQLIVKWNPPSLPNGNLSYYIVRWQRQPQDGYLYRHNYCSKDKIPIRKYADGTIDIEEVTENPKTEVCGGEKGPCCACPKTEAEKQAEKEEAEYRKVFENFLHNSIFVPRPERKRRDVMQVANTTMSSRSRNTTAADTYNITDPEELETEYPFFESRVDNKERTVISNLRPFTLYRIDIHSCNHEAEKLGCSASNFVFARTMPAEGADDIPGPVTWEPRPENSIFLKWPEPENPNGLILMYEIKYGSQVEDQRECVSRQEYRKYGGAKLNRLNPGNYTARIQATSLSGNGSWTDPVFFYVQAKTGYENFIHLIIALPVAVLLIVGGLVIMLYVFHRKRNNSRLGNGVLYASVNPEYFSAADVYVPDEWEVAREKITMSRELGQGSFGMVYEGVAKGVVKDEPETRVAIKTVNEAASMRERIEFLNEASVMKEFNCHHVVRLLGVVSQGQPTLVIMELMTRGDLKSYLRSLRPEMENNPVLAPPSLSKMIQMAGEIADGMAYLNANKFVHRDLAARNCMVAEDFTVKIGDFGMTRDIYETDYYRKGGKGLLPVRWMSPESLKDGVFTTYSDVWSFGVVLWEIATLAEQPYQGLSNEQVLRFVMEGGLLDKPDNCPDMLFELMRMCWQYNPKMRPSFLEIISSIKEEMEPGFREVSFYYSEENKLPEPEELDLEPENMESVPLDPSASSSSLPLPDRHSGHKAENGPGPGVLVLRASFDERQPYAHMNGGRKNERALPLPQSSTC

native insulin-3.4K PEG-immunoglobulin Fc conjugate
Receptor binding affinity (%, SPA method), IGF-1R: < 1%
